Reference: paper PMC8166090, “Improvements of the productivity and saccharification efficiency of the cellulolytic β-glucosidase D2-BGL in Pichia pastoris via directed evolution” (Biotechnology for Biofuels, 2021)

T1: D2-BGL (WT D2; Pp D2-BGL) (Chaetomella raphigera, UniProt A0A068FT77)
T1 construct: 722 residues, 76 kDa theoretical; alpha-mating factor secretion signal upstream (pGAPZalphaC-D2); expressed in Pichia pastoris SMD 1168; glycosylated
T1 sequence (A0A068FT77 1-722): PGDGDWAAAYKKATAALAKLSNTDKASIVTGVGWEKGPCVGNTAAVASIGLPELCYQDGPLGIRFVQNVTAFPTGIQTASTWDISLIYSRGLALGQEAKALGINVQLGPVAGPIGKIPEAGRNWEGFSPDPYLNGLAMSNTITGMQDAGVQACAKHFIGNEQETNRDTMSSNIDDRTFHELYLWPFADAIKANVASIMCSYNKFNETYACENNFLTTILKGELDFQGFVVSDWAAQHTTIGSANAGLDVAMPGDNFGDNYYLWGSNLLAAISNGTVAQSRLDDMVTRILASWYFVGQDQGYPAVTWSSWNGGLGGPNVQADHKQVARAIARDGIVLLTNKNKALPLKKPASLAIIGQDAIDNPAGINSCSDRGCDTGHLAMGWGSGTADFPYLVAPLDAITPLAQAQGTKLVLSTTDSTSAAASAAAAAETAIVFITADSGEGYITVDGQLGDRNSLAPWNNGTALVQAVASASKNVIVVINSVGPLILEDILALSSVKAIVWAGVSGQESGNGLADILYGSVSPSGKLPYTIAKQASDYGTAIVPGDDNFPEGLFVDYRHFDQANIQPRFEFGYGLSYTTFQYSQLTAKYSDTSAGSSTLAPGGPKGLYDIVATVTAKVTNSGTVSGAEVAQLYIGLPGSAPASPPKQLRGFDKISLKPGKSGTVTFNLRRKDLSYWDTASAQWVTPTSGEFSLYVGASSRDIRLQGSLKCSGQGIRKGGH


Tests used:
[1] = molecular target: T2, D2-BGL (WT D2; Pp D2-BGL) (Chaetomella raphigera, UniProt A0A068FT77, D224G/F256M/Y260D); experiment: p-nitrophenol release at […] nm, […] pNPG, substrate inhibition fit; type: biochemical; conditions: 50 mM NaOAc pH 5, 55 °C
T2 construct: 722 residues, 76 kDa theoretical; alpha-mating factor secretion signal upstream (pGAPZalphaC-D2); expressed in Pichia pastoris SMD 1168; glycosylated

[2] = molecular target: T2, D2-BGL (WT D2; Pp D2-BGL); experiment: inhibition of pNPG hydrolysis with […] glucose; type: biochemical; conditions: pNPG as substrate; 50 mM NaOAc pH 5, 55 °C; product inhibition; read-out: Mut M
[3] = molecular target: T1, D2-BGL (WT D2; Pp D2-BGL); experiment: inhibition of pNPG hydrolysis with […] glucose; type: biochemical; conditions: pNPG as substrate; 50 mM NaOAc pH 5, 55 °C; product inhibition
purified protein = substrate: O=[N+]([O-])c1ccc(O[C@@H]2O[C@H](CO)[C@@H](O)[C@H](O)[C@H]2O)cc1; experiment: purified protein; conditions: 50 mM NaOAc pH 5, 55 °C

Row | kinetic constant from substrate inhibition fit [1] | Ki [2] | Ki [3] | Molecule | Km (purified protein) | Vmax (purified protein)
1 | 3.21 ± 0.56 mM |  |  | O=[N+]([O-])c1ccc(O[C@@H]2O[C@H](CO)[C@@H](O)[C@H](O)[C@H]2O)cc1 [pNPG, p-nitrophenyl β-D-glucopyranoside] |  | 
2 |  | 1590 ± 70 µM | 3230 ± 1080 µM | OC[C@H]1OC(O)[C@H](O)[C@@H](O)[C@@H]1O (stereo partly shown) [glucose] |  | 
3 |  |  |  | D2-BGL (WT D2; Pp D2-BGL) (Chaetomella raphigera) (protein) PGDGDWAAAYKKATAALAKLSNTDKASIVTGVGWEKGPCVGNTAAVASIGLPELCYQDGPLGIRFVQNVTAFPTGIQTASTWDISLIYSRGLALGQEAKALGINVQLGPVAGPIGKIPEAGRNWEGFSPDPYLNGLAMSNTITGMQDAGVQACAKHFIGNEQETNRDTMSSNIDDRTFHELYLWPFADAIKANVASIMCSYNKFNETYACENNFLTTILKGELDFQGFVVSDWAAQHTTIGSANAGLDVAMPGDNFGDNYYLWGSNLLAAISNGTVAQSRLDDMVTRILASWYFVGQDQGYPAVTWSSWNGGLGGPNVQADHKQVARAIARDGIVLLTNKNKALPLKKPASLAIIGQDAIDNPAGINSCSDRGCDTGHLAMGWGSGTADFPYLVAPLDAITPLAQAQGTKLVLSTTDSTSAAASAAAAAETAIVFITADSGEGYITVDGQLGDRNSLAPWNNGTALVQAVASASKNVIVVINSVGPLILEDILALSSVKAIVWAGVSGQESGNGLADILYGSVSPSGKLPYTIAKQASDYGTAIVPGDDNFPEGLFVDYRHFDQANIQPRFEFGYGLSYTTFQYSQLTAKYSDTSAGSSTLAPGGPKGLYDIVATVTAKVTNSGTVSGAEVAQLYIGLPGSAPASPPKQLRGFDKISLKPGKSGTVTFNLRRKDLSYWDTASAQWVTPTSGEFSLYVGASSRDIRLQGSLKCSGQGIRKGGH | 310 ± 140 µM | 575 µM/min
4 |  |  |  | D2-BGL (WT D2; Pp D2-BGL) (Chaetomella raphigera; D224G/F256M/Y260D) (protein) PGDGDWAAAYKKATAALAKLSNTDKASIVTGVGWEKGPCVGNTAAVASIGLPELCYQDGPLGIRFVQNVTAFPTGIQTASTWDISLIYSRGLALGQEAKALGINVQLGPVAGPIGKIPEAGRNWEGFSPDPYLNGLAMSNTITGMQDAGVQACAKHFIGNEQETNRDTMSSNIDDRTFHELYLWPFADAIKANVASIMCSYNKFNETYACENNFLTTILKGELGFQGFVVSDWAAQHTTIGSANAGLDVAMPGDNMGDNDYLWGSNLLAAISNGTVAQSRLDDMVTRILASWYFVGQDQGYPAVTWSSWNGGLGGPNVQADHKQVARAIARDGIVLLTNKNKALPLKKPASLAIIGQDAIDNPAGINSCSDRGCDTGHLAMGWGSGTADFPYLVAPLDAITPLAQAQGTKLVLSTTDSTSAAASAAAAAETAIVFITADSGEGYITVDGQLGDRNSLAPWNNGTALVQAVASASKNVIVVINSVGPLILEDILALSSVKAIVWAGVSGQESGNGLADILYGSVSPSGKLPYTIAKQASDYGTAIVPGDDNFPEGLFVDYRHFDQANIQPRFEFGYGLSYTTFQYSQLTAKYSDTSAGSSTLAPGGPKGLYDIVATVTAKVTNSGTVSGAEVAQLYIGLPGSAPASPPKQLRGFDKISLKPGKSGTVTFNLRRKDLSYWDTASAQWVTPTSGEFSLYVGASSRDIRLQGSLKCSGQGIRKGGH | 180 ± 50 µM | 374 µM/min
